Values quoted from earlier work as cited in publication PMC4586255.
Like-named read-outs stand apart in the source and are kept apart here.

Columns and labels:
PCNA (Homo sapiens) [1] = molecular target: PCNA (Homo sapiens) (UniProt P12004)
PCNA (Homo sapiens) [2] = molecular target: PCNA (Homo sapiens) (UniProt P12004); remark: listed apart in the source

PCNA (Homo sapiens), sequence (P12004 whole entry): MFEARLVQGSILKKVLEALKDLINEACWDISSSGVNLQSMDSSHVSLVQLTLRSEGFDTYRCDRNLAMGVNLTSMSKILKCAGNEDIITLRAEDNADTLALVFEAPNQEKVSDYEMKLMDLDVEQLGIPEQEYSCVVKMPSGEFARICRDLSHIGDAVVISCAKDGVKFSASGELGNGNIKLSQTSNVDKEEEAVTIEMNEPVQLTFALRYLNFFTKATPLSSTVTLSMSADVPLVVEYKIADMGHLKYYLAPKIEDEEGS
FEN1 PIP-box peptide PIP-box peptide, sequence (P39748 331-350): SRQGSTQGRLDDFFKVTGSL
p21 PIP-box peptide PIP-box peptide, sequence (P38936 139-160): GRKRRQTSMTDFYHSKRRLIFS

Row | Kd (PCNA (Homo sapiens) [1]) | Kd (PCNA (Homo sapiens) [2]) | Substance
1 | 59 µM |  | FEN1 PIP-box peptide PIP-box peptide (from UniProt P39748)
2 |  | 0.082 µM | p21 PIP-box peptide PIP-box peptide (from UniProt P38936)
